PMC12413468 (Communications Biology, 2025)
Where no end group is shown, it is not given here. [ ]: non-standard residue; d: D form. pS = N[C@@H](COP(=O)(O)O)C(=O)O

Assays:
[1] = target: T1, His6-tagged OSR1 CCT domain (human OSR1 433–527) (human, UniProt O95747 433-527); test: fluorescence polarisation
[2] = target: His6-tagged SPAK CCT domain (mouse SPAK 459–556) (mouse, UniProt Q9Z1W9 459-556); test: fluorescence polarisation
[3] = target: T1, His6-tagged OSR1 CCT domain (human OSR1 …); test: peptide or protein array

T1 sequence (O95747 433-527): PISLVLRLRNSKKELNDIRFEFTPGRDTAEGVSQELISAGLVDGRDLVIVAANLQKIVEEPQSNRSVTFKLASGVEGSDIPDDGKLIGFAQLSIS

## H-SAGRRFIVSPVPE-OH [Wild-type human WNK1 peptide 1253–1265 (NH3+-SAGRRFIVSPVPE-COO-)]
[1]
  Ki: 5.1 µM
[2]
  Ki: 2.5 µM

## Ac-QLVGRFQVTSSKE (also: covalently linked to the membrane) [Wild-type WNK4 1012–1024 base peptide on the peptide array]
[3]
  binding result: binds

## SAGRRFIV[pS]PVPE [WNK1 peptide 1253–1265 with phosphoserine at the +3 position]
[1]
  fold decrease in affinity against the unphosphorylated peptide: ~2.5 fold
[2]
  fold decrease in affinity against the unphosphorylated peptide: ~2.5 fold

## SAGHHFIVSPVPE [WNK1 peptide 1253–1265 with the arginines replaced by histidine-histidine]
[1]
  fold decrease in affinity against wild type: ~7 fold
[2]
  fold decrease in affinity against wild type: ~7 fold

## SAGHAFIVSPVPE [WNK1 peptide 1253–1265 with the arginines replaced by histidine-alanine]
[1]
  fold decrease in affinity against wild type: 11 fold
[2]
  fold decrease in affinity against wild type: 11 fold

## SAGKKFIVSPVPE [WNK1 peptide 1253–1265 with the arginines replaced by lysine-lysine]
[1]
  Ki: 16.3 µM
[2]
  Ki: 4.2 µM

## QLVGRFQVTSSKE [Wild-type human WNK4 peptide 1012–1024 (QLVGRFQVTSSKE)]
[1]
  Ki: 12.9 µM
[2]
  Ki: 7.2 µM

## QLVSRFQVTSSKE [WNK4 peptide 1012–1024 with the −2 glycine changed to serine]
[1]
  binding result: binds
[2]
  binding result: binds

## QLVARFQVTSSKE [WNK4 peptide 1012–1024 with the −2 glycine changed to alanine (QLVARFQVTSSKE)]
[1]
  binding result: binds
[2]
  binding result: binds
